Earlier results as cited in patent US20200069786A1, “COMPOSITION AND PROCESS FOR PREPARING VACCINE” (TREOS BIO ZRT., priority 2018, published 2020).
Like-named read-outs stand apart in the source and are kept apart here.

Tested on: TSA
[1] = TSA expression rate in MELANOMA
[2] = TSA expression rate in GASTRIC cancer
[3] = TSA expression rate in LUNG cancer
[4] = TSA expression rate in Cervical cancer
[5] = TSA expression rate in Esophageal
[6] = TSA expression rate in PROSTATE cancer

B1: TYR (protein, UniProt P14679 19-529, looked up)
Tyrosinase: HFPRACVSSKNLMEKECCPPWSGDRSPCGQLSGRGSCQNILLSNAPLGPQFPFTGVDDRESWPSVFYNRTCQCSGNFMGFNCGNCKFGFWGPNCTERRLLVRRNIFDLSAPEKDKFFAYLTLAKHTISSDYVIPIGTYGQMKNGSTPMFNDINIYDLFVWMHYYVSMDALLGGSEIWRDIDFAHEAPAFLPWHRLFLLRWEQEIQKLTGDENFTIPYWDWRDAEKCDICTDEYMGGQHPTNPNLLSPASFFSSWQIVCSRLEEYNSHQSLCNGTPEGPLRRNPGNHDKSRTPRLPSSADVEFCLSLTQYESGSMDKAANFSFRNTLEGFASPLTGIADASQSSMHNALHIYMNGTMSQVQGSANDPIFLLHHAFVDSIFEQWLRRHRPLQEVYPEANAPIGHNRESYMVPFIPLYRNGDFFISSKDLGYDYSYLQDSDPDSFQDYIKSYLEQASRIWSWLLGAAMVGAVLTALLAGLVSLLCRHKRKQLPEEKQPLLMEKEDYHSLYQSHL
- TSA Expression Rate (ER) (BRAIN): 91%
- TSA Expression Rate (ER) (THYROID): 0%
- Expression Rate (ER) % [1]: 87%

B2: ZNF165 (protein, UniProt P49910 1-485, looked up)
Zinc finger protein 165: MATEPKKAAAQNSPEDEGLLIVKIEEEEFIHGQDTCLQRSELLKQELCRQLFRQFCYQDSPGPREALSRLRELCCQWLKPEIHTKEQILELLVLEQFLTILPGDLQAWVHEHYPESGEEAVTILEDLERGTDEAVLQVQAHEHGQEIFQKKVSPPGPALNVKLQPVETKAHFDSSEPQLLWDCDNESENSRSMPKLEIFEKIESQRIISGRISGYISEASGESQDICKSAGRVKRQWEKESGESQRLSSAQDEGFGKILTHKNTVRGEIISHDGCERRLNLNSNEFTHQKSCKHGTCDQSFKWNSDFINHQIIYAGEKNHQYGKSFKSPKLAKHAAVFSGDKTHQCNECGKAFRHSSKLARHQRIHTGERCYECNECGKSFAESSDLTRHRRIHTGERPFGCKECGRAFNLNSHLIRHQRIHTREKPYECSECGKTFRVSSHLIRHFRIHTGEKPYECSECGRAFSQSSNLSQHQRIHMRENLLM
- TSA Expression Rate (ER) (BRAIN): 100%
- TSA Expression Rate (ER) (HCC): 52%
- TSA Expression Rate (ER) (LUNG): 21%
- Expression Rate (ER) % (TSA expression rate in CRC): 43%
- Expression Rate (ER) % [2]: 9%
- Expression Rate (ER) % (TSA expression rate in LEUKEMIAS): 52%

B3: IL13RA2 (protein, UniProt Q14627 27-380, looked up)
Interleukin-13 receptor …: DTEIKVNPPQDFEIVDPGYLGYLYLQWQPPLSLDHFKECTVEYELKYRNIGSETWKTIITKNLHYKDGFDLNKGIEAKIHTLLPWQCTNGSEVQSSWAETTYWISPQGIPETKVQDMDCVYYNWQYLLCSWKPGIGVLLDTNYNLFYWYEGLDHALQCVDYIKADGQNIGCRFPYLEASDYKDFYICVNGSSENKPIRSSYFTFQLQNIVKPLPPVYLTFTRESSCEIKLKWSIPLGPIPARCFDYEIEIREDDTTLVTATVENETYTLKTTNETRQLCFVVRSKVNIYCSDDGIWSEWSDKQCWEGEDLSKKTLLRFWLPFGFILILVIFVTGLLLRKPNTYPKMIPEFFCDT
- TSA Expression Rate (ER) (BRAIN): 95%
- Expression Rate (ER) % [3]: 12%
- Expression Rate (ER) % (TSA expression rate in PEDIATRIC): 58%

B4: GAGE-2 (protein, UniProt Q6NT46 1-116, looked up)
G antigen 2A: MSWRGRSTYRPRPRRYVEPPEMIGPMRPEQFSDEVEPATPEEGEPATQRQDPAAAQEGQDEGASAGQGPKPEAHSQEQGHPQTGCECEDGPDGQEMDPPNPEEVKTPEEGEKQSQC
- TSA Expression Rate (ER) (PANCREATIC): 17%

B5: CEA (protein, UniProt P06731 35-685, looked up)
Cell adhesion molecule CEACAM5: KLTIESTPFNVAEGKEVLLLVHNLPQHLFGYSWYKGERVDGNRQIIGYVIGTQQATPGPAYSGREIIYPNASLLIQNIIQNDTGFYTLHVIKSDLVNEEATGQFRVYPELPKPSISSNNSKPVEDKDAVAFTCEPETQDATYLWWVNNQSLPVSPRLQLSNGNRTLTLFNVTRNDTASYKCETQNPVSARRSDSVILNVLYGPDAPTISPLNTSYRSGENLNLSCHAASNPPAQYSWFVNGTFQQSTQELFIPNITVNNSGSYTCQAHNSDTGLNRTTVTTITVYAEPPKPFITSNNSNPVEDEDAVALTCEPEIQNTTYLWWVNNQSLPVSPRLQLSNDNRTLTLLSVTRNDVGPYECGIQNELSVDHSDPVILNVLYGPDDPTISPSYTYYRPGVNLSLSCHAASNPPAQYSWLIDGNIQQHTQELFISNITEKNSGLYTCQANNSASGHSRTTVKTITVSAELPKPSISSNNSKPVEDKDAVAFTCEPEAQNTTYLWWVNGQSLPVSPRLQLSNGNRTLTLFNVTRNDARAYVCGIQNSVSANRSDPVTLDVLYGPDTPIISPPDSSYLSGANLNLSCHSASNPSPQYSWRINGIPQQHTQVLFIAKITPNNNGTYACFVSNLATGRNNSIVKSITVSASGTSPGLSA
- TSA Expression Rate (ER) (PANCREATIC): 60%

B6: PIWIL1 (protein, UniProt Q96J94 1-861, looked up)
Piwi-like protein 1: MTGRARARARGRARGQETAQLVGSTASQQPGYIQPRPQPPPAEGELFGRGRQRGTAGGTAKSQGLQISAGFQELSLAERGGRRRDFHDLGVNTRQNLDHVKESKTGSSGIIVRLSTNHFRLTSRPQWALYQYHIDYNPLMEARRLRSALLFQHEDLIGKCHAFDGTILFLPKRLQQKVTEVFSKTRNGEDVRITITLTNELPPTSPTCLQFYNIIFRRLLKIMNLQQIGRNYYNPNDPIDIPSHRLVIWPGFTTSILQYENSIMLCTDVSHKVLRSETVLDFMFNFYHQTEEHKFQEQVSKELIGLVVLTKYNNKTYRVDDIDWDQNPKSTFKKADGSEVSFLEYYRKQYNQEITDLKQPVLVSQPKRRRGPGGTLPGPAMLIPELCYLTGLTDKMRNDFNVMKDLAVHTRLTPEQRQREVGRLIDYIHKNDNVQRELRDWGLSFDSNLLSFSGRILQTEKIHQGGKTFDYNPQFADWSKETRGAPLISVKPLDNWLLIYTRRNYEAANSLIQNLFKVTPAMGMQMRKAIMIEVDDRTEAYLRVLQQKVTADTQIVVCLLSSNRKDKYDAIKKYLCTDCPTPSQCVVARTLGKQQTVMAIATKIALQMNCKMGGELWRVDIPLKLVMIVGIDCYHDMTAGRRSIAGFVASINEGMTRWFSRCIFQDRGQELVDGLKVCLQAALRAWNSCNEYMPSRIIVYRDGVGDGQLKTLVNYEVPQFLDCLKSIGRGYNPRLTVIVVKKRVNTRFFAQSGGRLQNPLPGTVIDVEVTRPEWYDFFIVSQAVRSGSVSPTHYNVIYDNSGLKPDHIQRLTYKLCHIYYNWPGVIRVPAPCQYAHKLAFLVGQSIHREPNLSLSNRLYYL
- TSA Expression Rate (ER) (BRAIN): 76%
- TSA Expression Rate (ER) (BREAST): 100%
- TSA Expression Rate (ER) (HCC): 40%
- TSA Expression Rate (ER) (OVARIAN): 68%
- TSA Expression Rate (ER) (PANCREATIC): 71%
- Expression Rate (ER) % (TSA expression rate in CRC): 48%
- Expression Rate (ER) % [4]: 83%
- Expression Rate (ER) % [5]: 70%
- Expression Rate (ER) % [2]: 76%
- Expression Rate (ER) % (TSA expression rate in Kidney): 52%
- Expression Rate (ER) % [3]: 15%
- Expression Rate (ER) % [6]: 4%

B7: KIF20A (protein, UniProt O95235 2-890, looked up)
Kinesin-like protein KIF20A: SQGILSPPAGLLSDDDVVVSPMFESTAADLGSVVRKNLLSDCSVVSTSLEDKQQVPSEDSMEKVKVYLRVRPLLPSELERQEDQGCVRIENVETLVLQAPKDSFALKSNERGIGQATHRFTFSQIFGPEVGQASFFNLTVKEMVKDVLKGQNWLIYTYGVTNSGKTHTIQGTIKDGGILPRSLALIFNSLQGQLHPTPDLKPLLSNEVIWLDSKQIRQEEMKKLSLLNGGLQEEELSTSLKRSVYIESRIGTSTSFDSGIAGLSSISQCTSSSQLDETSHRWAQPDTAPLPVPANIRFSIWISFFEIYNELLYDLLEPPSQQRKRQTLRLCEDQNGNPYVKDLNWIHVQDAEEAWKLLKVGRKNQSFASTHLNQNSSRSHSIFSIRILHLQGEGDIVPKISELSLCDLAGSERCKDQKSGERLKEAGNINTSLHTLGRCIAALRQNQQNRSKQNLVPFRDSKLTRVFQGFFTGRGRSCMIVNVNPCASTYDETLHVAKFSAIASQLVHAPPMQLGFPSLHSFIKEHSLQVSPSLEKGAKADTGLDDDIENEADISMYGKEELLQVVEAMKTLLLKERQEKLQLEMHLRDEICNEMVEQMQQREQWCSEHLDTQKELLEEMYEEKLNILKESLTSFYQEEIQERDEKIEELEALLQEARQQSVAHQQSGSELALRRSQRLAASASTQQLQEVKAKLQQCKAELNSTTEELHKYQKMLEPPPSAKPFTIDVDKKLEEGQKNIRLLRTELQKLGESLQSAERACCHSTGAGKLRQALTTCDDILIKQDQTLAELQNNMVLVKLDLRKKAACIAEQYHTVLKLQGQVSAKKRLGTNQENQQPNQQPPGKKPFLRNLLPRTPTCQSSTDCSPYARILRSRRSPLLKSGPFGKKY
- TSA Expression Rate (ER) (BRAIN): 58%
- TSA Expression Rate (ER) (LUNG): 95%
- TSA Expression Rate (ER) (OVARIAN): 65%
- TSA Expression Rate (ER) (PANCREATIC): 63%
- Expression Rate (ER) % [4]: 35%
- Expression Rate (ER) % [5]: 15%
- Expression Rate (ER) % [1]: 64%

B8: ODF4 (protein, UniProt Q2M2E3 1-257, looked up)
Outer dense fiber protein 4: MDAEYSGNEFPRSEGERDQHQRPGKERKSGEAGWGTGELGQDGRLLSSTLSLSSNRSLGQRQNSPLPFQWRITHSFRWMAQVLASELSLVAFILLLVVAFSKKWLDLSRSLFYQRWPVDVSNRIHTSAHVMSMGLLHFYKSRSCSDLENGKVTFIFSTLMLFPINIWIFELERNVSIPIGWSYFIGWLVLILYFTCAILCYFNHKSFWSLILSHPSGAVSCSSSFGSVEESPRAQTITDTPITQEGVLDPEQKDTHV
- TSA Expression Rate (ER) (BREAST): 63%
- Expression Rate (ER) % [6]: 0%

B9: PBK (protein, UniProt Q96KB5 1-322, looked up)
Lymphokine-activated killer …: MEGISNFKTPSKLSEKKKSVLCSTPTINIPASPFMQKLGFGTGVNVYLMKRSPRGLSHSPWAVKKINPICNDHYRSVYQKRLMDEAKILKSLHHPNIVGYRAFTEANDGSLCLAMEYGGEKSLNDLIEERYKASQDPFPAAIILKVALNMARGLKYLHQEKKLLHGDIKSSNVVIKGDFETIKICDVGVSLPLDENMTVTDPEACYIGTEPWKPKEAVEENGVITDKADIFAFGLTLWEMMTLSIPHINLSNDDDDEDKTFDESDFDDEAYYAALGTRPPINMEELDESYQKVIELFSVCTNEDPKDRPSAAHIVEALETDV
- TSA Expression Rate (ER) (BRAIN): 100%
- TSA Expression Rate (ER) (HCC): 64%
- Expression Rate (ER) % (TSA expression rate in BLADDER cancer): 43%
